Test results published in US7063946B2, “Methods, reagents, kits and apparatus for protein function analysis” (Meso Scale Technologies, LLC., priority 2001, dated 2006).

Target: T1, EGFR (Homo sapiens, UniProt P00533)
T1 construct: autophosphorylated tyrosines (self-phosphorylated with ATP before use); purchased Sigma Chemical Co, MO
Assay: EGFR binding assay, bound EGFR detected by its tyrosine kinase activity towards pEY
Method: Proteins were produced in an in vitro transcription and translation reaction using 40–100 ng of plasmid DNA. […] The unbound components of the reaction containing endogenous kinases were removed by three washes with TT-buffer (25 mM Tris-HCl buffer pH 7.4 and 0.004% Triton), two five minutes washings with high-salt wash buffer (25 mM Tris-HCl buffer pH 7.4, 0.004% Triton, 1M NaCl and 5 mM DTT) and 3 more washes with TT-buffer. […] The unbound EGFR was washed by 4 times washing with TT-buffer (25 mM Tris-HCl buffer pH 7.4 and 0.004% Triton). The amount of EGFR bound to the reticulocyte lysate expressed protein was determined by detecting the kinase activity of EGFR. A tyrosine kinase substrate, 5 nM pEY (poly Glu-Tyr, Sigma, MO) was added in a 50 μl reaction containing 5 mM MgCl2, 5 mM MnCl2, 100 μM ATP, 25 mM Tris-HCl buffer pH 7.4, 0.05 mM Na3VO4, 0.004% TritonX-100, 2 mM DTT and EDTA-free protease inhibitor (Roche Molecular Biochemicals). This mixture was incubated with shaking at room temperature for 1 or 12 hours to allow phosphorylation of the pEY substrate by the EGFR. Following this incubation 45 μl of this mixture was transferred to a SA—NPT IPR plate coated with biotinylated anti-phosphotyrosine antibody (PY20, Zymed labs, CA) followed by incubation for 30 minutes at room temperature to allow the binding of the phosphorylated pEY substrate to the PY20 coated NPT plate. Following this binding step 50 ng Sulfo-TAG labeled anti-phosphotyrosine in buffer containing 25 mM Tris-HCl buffer pH 7.4, 5 mM MgCl2, 0.05 mM Na3VO4, 0.004% TritonX-100, 2 mM DTT and 0.05% IgG was added followed by incubation at room temperature for 30 mm.
The unbound reagents were removed by one time washing with TT-buffer (25 mM Tris-HCl buffer pH 7.4 and 0.004% Triton), and the TAG label was detected in presence of 150 μl IPR assay buffer (0.4 mM Gly-Gly buffer, pH 7.8, 1 mM EDTA, 0.1 M TPA). The ECL signals were measured using an imaging plate reader.

B1: 4419252: IMAGE clone protein: PLCγ (protein)
chain: MAGAASPCANGCGPGAPSDAEVLHLCRSLEVGTVMTLFYSKKSQRPERKTFQVKLETRQITWSRGADKIEGAIDIREIKEIRPGKTSRDFDRYQEDPAFRPDQSHCFVILYGMEFRLKTLSLQATSEDEVNMWIKGLTWLMEDTLQAPTPLQIERWLRKQFYSVDRNREDRISAKDLKNMLSQVNYRVPNMRFLRERLTDLEQRSGDITYGQFAQLYRSLMYSAQKTMDLPFLEASTLRAGERPELCRVSLPEFQQFLLDYQGELWAVDRLQVQEFMLSFLRDPLREIEEPYFFLDEFVTFLFSKENSVWNSQLDAVCPDTMNNPLSHYWISSSHNTYLTGDQFSSESSLEAYARCLRMGCRCIELDCWDGPDGMPVIYHGHTLTTKIKFSDVLHTIKEHAFVASEYPVILSIEDHCSIAQQRNMAQYFKKVLGDTLLTKPVEISADGLPSPNQLKRKILIKHKKLAEGSAYEEVPTSMMYSENDISNSIKNGILYLEDPVNHEWYPHYFVLTSSKIYYSEETSSDQGNEDEEEPKEVSSSTELHSNEKWFHGKLGAGRDGRHIAERLLTEYCIETGAPDGSFLVRESETFVGDYTLSFWRNGKVQHCRIHSRQDAGTPKFFLTDNLVFDSLYDLITHYQQVPLRCNEFEMRLSEPVPQTNAHESKEWYHASLTRAQAEHMLMRVPRDGAFLVRKRNEPNSYAISFRAEGKIKHCRVQQEGQTVMLGNSEFDSLVDLISYYEKHPLYRKMKLRYPINEEALEKIGTAEPDYGALYEGRNPGFYVEANPMPTFKCAVKALFDYKAQREDELTFIKSAIIQNVEKQEGGWWRGDYGGKKQLWFPSNYVEEMVNPVALEPEREHLDENSPLGDLLRGVLDVPACQIAIRPEGKNNRLFVFSISMASVAHWSLDVAADSQEELQDWVKKIREVAQTADARLTEGKIMERRKKIALELSELVVYCRPVPFDEEKIGTERACYRDMSSFPETKAEKYVNKAKGKKFLQYNRLQLSRIYPKGQRLDSSNYDPLPMWICGSQLVALNFQTPDKPMQMNQALFMTGRHCGYVLQPSTMRDEAFDPFDKSSLRGLEPCAISIEVLGARHLPKNGRGIVCPFVEIEVAGAEYDSTKQKTEFVVDNGLNPVWPAKPFHFQISNPEFAFLRFVVYEEDMFSDQNFLAQATFPVKGLKTGYRAVPLKNNYSEDLELASLLIKIDIFPAKENGDLSPFSGTSLRERGSDASGQLFHGRAREGSFESRYQQPFEDFRISQEHLADHFDSRERRAPRRTRVNGDNRL
ECL signal (+EGFR, reaction time 1 hr): 17,966 | ECL signal (+EGFR, reaction time 12 hr): 39,767 | ECL signal (no EGFR): 1,695
